Source: US20210324094A1 (MOGAM INSTITUTE FOR BIOMEDICAL RESEARCH, published 2021)

How the values were obtained:
Human IR = biological target: T1, Human IR (human, UniProt P06213 28-956, limits assumed); experiment: SPR, IR immobilised on CM5 chip, IR739 flowed, pH 7.0
T1 construct: the natural receptor is processed into alpha and beta chains; also called human insulin receptor
Procedure: (§1) Human IR or mouse IR at 1 μg/ml was immobilized with acetate (pH 4.0) on a CM5 sensor chip. […] For measurement conditions, a flow rate was set as 30 μl/min, and an association time and a dissociation time were set as 120 seconds and 600 seconds, respectively. For regeneration, 10 mM glycine-HCl (pH 1.5) was flowed for 30 seconds.

Mouse IR = biological target: T2, Mouse IR (mouse, UniProt P15208 28-946, limits assumed); experiment: as above
T2 construct: also called mouse insulin receptor
Procedure: as §1

B1: IR739 (antibody, human IgG1, kappa, V domains shown)
VH: EVQLVESGGGLVQPGGSLRLSCAASGFTFSSYYMSWVRQAPGKGLEWVSAISYGGSSTYYADSVKGRFTISRDNSKNTLYLQMNSLRAEDTAVYYCARHPSYGTVNHAYFDVWGQGTLVTVSS
VL: DIQMTQSPSSLSASVGDRVTITCGASRDVSSYLAWYQQKPGKAPKLLIYDANILQSGVPSRFSGSGSGTDFTLTISSLQPEDFATYYCLEYNNLPLTFGQGTKVEIKR
notes: Conventional IgG from a human synthetic scFv library; also called IR739 antibody; anti-IR antibody
- Kd (Human IR): 15 nM
- koff (Human IR): 0.00144 s⁻¹
- kon (Human IR): 96000 M⁻¹ s⁻¹
- Kd (Mouse IR): 6.4 nM
- koff (Mouse IR): 0.00061 s⁻¹
- kon (Mouse IR): 95300 M⁻¹ s⁻¹
